Test results reported in patent US20220298225A1, “METHODS AND COMPOSITIONS FOR TREATING CANCER WITH COLLAGEN BINDING DRUG CARRIERS” (The University of Chicago, priority 2019, published 2022).

How the values were obtained:
collagen type I = collagen type I (Homo sapiens, UniProt P02452+P08123); assay: Binding affinity of CBD-SA to collagen by ELISA
Procedure: (§1) The binding affinity of CBD-SA to collagens were tested as described previously (9). 96 well ELISA plates (Greiner Bio-One) were coated with collagen I or collagen III (10 μg/mL each in PBS) for overnight at 37° C., followed by blocking with 2% BSA in PBS with 0.05% Tween 20 (PBS-T) for 1 h at room temperature. Then, wells were washed with PBS-T and further incubated with CBD-SA at increasing concentrations for 2 h at room temperature. After three washes with PBS-T, wells were incubated for 1 h at room temperature with biotin- conjugated Abs against mouse SA. After washes, bound CBD-SA were detected with tetramethylbenzidine substrate by measurement of the absorbance at 450 nm with subtraction of the absorbance at 570 nm. The apparent Kd values were obtained by nonlinear regression analysis in Prism software (version 7, GraphPad) assuming one-site-specific binding.

collagen type III = target: T1, collagen type III (Homo sapiens, UniProt P02461); assay: Binding affinity of CBD-SA to collagen by ELISA
T1 sequence (P02461 154-1221 limits assumed): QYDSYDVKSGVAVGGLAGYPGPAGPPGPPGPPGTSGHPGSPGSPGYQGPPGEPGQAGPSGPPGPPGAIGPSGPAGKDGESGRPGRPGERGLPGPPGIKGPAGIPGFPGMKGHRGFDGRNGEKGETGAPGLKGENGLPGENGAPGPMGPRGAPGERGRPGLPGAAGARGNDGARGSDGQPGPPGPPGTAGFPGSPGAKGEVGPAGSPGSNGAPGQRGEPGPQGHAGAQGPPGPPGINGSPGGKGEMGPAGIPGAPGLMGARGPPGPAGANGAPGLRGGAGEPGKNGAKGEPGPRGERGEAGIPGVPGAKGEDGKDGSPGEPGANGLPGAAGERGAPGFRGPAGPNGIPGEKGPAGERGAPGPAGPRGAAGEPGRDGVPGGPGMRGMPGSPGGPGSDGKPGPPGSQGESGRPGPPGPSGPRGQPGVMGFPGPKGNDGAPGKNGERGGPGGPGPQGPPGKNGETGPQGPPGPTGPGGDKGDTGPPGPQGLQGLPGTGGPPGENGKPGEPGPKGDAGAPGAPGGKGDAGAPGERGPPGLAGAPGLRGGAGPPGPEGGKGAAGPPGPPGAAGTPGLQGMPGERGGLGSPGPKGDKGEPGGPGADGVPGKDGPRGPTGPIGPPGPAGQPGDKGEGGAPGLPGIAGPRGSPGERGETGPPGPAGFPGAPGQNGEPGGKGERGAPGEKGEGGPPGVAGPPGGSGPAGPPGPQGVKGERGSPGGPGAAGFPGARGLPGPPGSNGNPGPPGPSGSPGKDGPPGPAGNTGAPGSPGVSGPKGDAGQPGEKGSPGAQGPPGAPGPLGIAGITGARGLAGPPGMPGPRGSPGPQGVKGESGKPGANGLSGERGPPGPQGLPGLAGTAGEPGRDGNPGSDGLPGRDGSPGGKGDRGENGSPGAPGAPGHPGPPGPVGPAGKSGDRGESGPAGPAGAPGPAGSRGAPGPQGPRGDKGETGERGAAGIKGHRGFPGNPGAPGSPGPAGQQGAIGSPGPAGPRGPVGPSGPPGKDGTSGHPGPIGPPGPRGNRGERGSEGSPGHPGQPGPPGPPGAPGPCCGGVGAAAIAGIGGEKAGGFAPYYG
Procedure: as §1

MMTV-PyMT tumor = assay: Histological analysis of injected CBD-SA within tumor; type: in vivo, mouse; details: 1 h after i.v. injection, CD31 staining
Procedure: Mouse SA (Sigma-Aldrich) and CBD-SA were conjugated with NHS-DyLight 488 according to manufacturer's instructions. Unreacted dye was removed by Zeba spin desalting column, then fluorescent protein solution was stored at 4° C. until use. 100 μg of fluorescent labeled SA or CBD-SA labeled with equimolar of dye was intravenously injected to MMTV-PyMT tumor-bearing mice. 1 h after injection, tumors were harvested and frozen in dry ice with OCT compound. 10 μm of tissue slices were obtained by cryo-sectioning. The tissues were fixed with 2% paraformaldehyde in PBS for 15 min at room temperature. After wash with PBS-T, the tissues were blocked with 2% BSA in PBS-T for 1 h at room temperature. The tissues were stained with biotin labeled anti-mouse CD31 antibody (1:100, Biolegend) and Alexa Fluor 647 streptavidin (1:1000, Biolegend). The tissues were washed three times, then covered with ProLong gold antifade mountant with DAPI (Thermo fisher scientific). IX83 microscope (Olympus) was used for imaging with ×60 magnification. Images were processed using ImageJ software (NIH).

Chain of collagen type I (P02452 162-1218 limits assumed): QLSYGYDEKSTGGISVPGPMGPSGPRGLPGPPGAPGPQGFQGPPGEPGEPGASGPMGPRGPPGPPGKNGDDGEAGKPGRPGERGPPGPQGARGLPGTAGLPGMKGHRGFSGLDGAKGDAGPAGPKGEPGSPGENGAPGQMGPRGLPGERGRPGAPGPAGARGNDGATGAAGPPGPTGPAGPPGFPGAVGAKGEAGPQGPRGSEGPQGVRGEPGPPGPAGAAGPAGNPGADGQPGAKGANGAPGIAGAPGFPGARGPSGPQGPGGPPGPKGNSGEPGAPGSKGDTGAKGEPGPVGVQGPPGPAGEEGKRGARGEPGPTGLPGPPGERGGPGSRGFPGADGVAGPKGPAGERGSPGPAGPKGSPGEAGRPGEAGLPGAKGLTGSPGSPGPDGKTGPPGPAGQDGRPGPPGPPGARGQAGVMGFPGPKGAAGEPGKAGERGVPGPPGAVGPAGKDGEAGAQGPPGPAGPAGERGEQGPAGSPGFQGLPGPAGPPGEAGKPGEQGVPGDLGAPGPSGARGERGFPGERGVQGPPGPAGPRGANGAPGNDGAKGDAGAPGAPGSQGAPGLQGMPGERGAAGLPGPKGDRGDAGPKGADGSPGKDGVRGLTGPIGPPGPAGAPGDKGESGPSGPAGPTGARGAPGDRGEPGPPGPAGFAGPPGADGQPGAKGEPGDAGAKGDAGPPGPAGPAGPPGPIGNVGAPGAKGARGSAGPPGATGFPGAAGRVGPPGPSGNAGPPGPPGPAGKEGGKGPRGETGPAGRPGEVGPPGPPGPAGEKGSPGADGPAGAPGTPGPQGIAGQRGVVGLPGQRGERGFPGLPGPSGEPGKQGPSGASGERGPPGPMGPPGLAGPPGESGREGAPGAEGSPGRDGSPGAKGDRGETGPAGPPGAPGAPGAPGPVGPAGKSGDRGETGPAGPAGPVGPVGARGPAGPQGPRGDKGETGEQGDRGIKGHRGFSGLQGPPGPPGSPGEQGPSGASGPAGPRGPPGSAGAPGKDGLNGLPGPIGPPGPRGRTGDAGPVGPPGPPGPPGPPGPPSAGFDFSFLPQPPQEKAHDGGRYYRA
Chain of collagen type I (P08123 80-1119 limits assumed): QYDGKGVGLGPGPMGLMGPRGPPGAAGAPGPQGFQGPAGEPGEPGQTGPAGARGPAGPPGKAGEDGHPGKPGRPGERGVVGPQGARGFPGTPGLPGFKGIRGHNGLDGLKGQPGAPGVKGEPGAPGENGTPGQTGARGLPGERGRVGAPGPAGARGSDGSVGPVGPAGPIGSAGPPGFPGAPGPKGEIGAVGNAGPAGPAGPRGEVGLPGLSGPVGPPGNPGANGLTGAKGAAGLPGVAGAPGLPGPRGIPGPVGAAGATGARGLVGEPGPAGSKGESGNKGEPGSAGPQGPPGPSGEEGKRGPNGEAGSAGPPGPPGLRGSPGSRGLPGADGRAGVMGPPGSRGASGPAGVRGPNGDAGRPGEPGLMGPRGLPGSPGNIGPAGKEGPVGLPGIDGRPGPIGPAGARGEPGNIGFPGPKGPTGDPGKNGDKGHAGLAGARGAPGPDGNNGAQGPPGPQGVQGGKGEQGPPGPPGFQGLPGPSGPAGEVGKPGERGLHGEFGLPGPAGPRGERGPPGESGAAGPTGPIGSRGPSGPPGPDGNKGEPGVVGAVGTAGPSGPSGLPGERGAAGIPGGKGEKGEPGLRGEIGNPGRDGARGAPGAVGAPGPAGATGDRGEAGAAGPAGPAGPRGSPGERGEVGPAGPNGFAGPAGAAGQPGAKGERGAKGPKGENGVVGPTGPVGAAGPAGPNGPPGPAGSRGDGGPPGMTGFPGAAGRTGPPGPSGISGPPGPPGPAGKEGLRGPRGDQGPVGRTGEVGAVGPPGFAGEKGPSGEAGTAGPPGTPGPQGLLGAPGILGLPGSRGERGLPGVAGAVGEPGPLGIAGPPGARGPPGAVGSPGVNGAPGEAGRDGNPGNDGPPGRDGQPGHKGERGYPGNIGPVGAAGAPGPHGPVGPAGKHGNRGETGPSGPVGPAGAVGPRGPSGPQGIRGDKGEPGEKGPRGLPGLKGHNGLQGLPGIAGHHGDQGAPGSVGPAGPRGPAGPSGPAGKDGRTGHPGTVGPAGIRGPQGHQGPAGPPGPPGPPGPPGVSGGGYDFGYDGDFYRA

B1: CBD-SA: recombinant mouse serum albumin with VWF A3 collagen binding domain on the N-terminus via (GGGS)2 linker (SEQ ID NO:3) (protein)
chain: CSQPLDVILLLDGSSSFPASYFDEMKSFAKAFISKANIGPRLTQVSVLQYGSITTIDVPWNVVPEKAHLLSLVDVMQREGGPSQIGDALGFAVRYLTSEMHGARPGASKAVVILVTDVSVDSVDAAADAARSNRVTVFPIGIGDRYDAAQLRILAGPAGDSNVVKLQRIEDLPTMVTLGNSFLHKLCSGFVRIGGGSGGGSEAHKSEIAHRYNDLGEQHFKGLVLIAFSQYLQKCSYDEHAKLVQEVTDFAKTCVADESAANCDKSLHTLFGDKLCAIPNLRENYGELADCCTKQEPERNECFLQHKDDNPSLPPFERPEAEAMCTSFKENPTTFMGHYLHEVARRHPYFYAPELLYYAEQYNEILTQCCAEADKESCLTPKLDGVKEKALVSSVRQRMKCSSMQKFGERAFKAWAVARLSQTFPNADFAEITKLATDLTKVNKECCHGDLLECADDRAELAKYMCENQATISSKLQTCCDKPLLKKAHCLSEVEHDTMPADLPAIAADFVEDQEVCKNYAEAKDVFLGTFLYEYSRRHPDYSVSLLLRLAKKYEATLEKCCAEANPPACYGTVLAEFQPLVEEPKNLVKTNCDLYEKLGEYGFQNAILVRYTQKAPQVSTPTLVEAARNLGRVGTKCCTLPEDQRLPCVEDYLSAILNRVCLLHEKTPVSEHVTKCCSGSLVERRPCFSALTVDETYVPKEFKAETFTFHSDICTLPEKEKQIKKQTALAELVKHKPKATAEQLKTVMDDFAQFLDTCCKAADKDTCFSTEGPNLVTRCKDALAHHHHHH
dissociation constant (Kd) to collagen type I (collagen type I): nM range
dissociation constant (Kd) to collagen type III (collagen type III): nM range
localization of fluorescently-labeled protein within tumor tissue (MMTV-PyMT tumor): co-localized with CD31 staining within tumor tissue
